Measurements from article PMC12154155.

What was measured:
[1] = target: RsbS S56A, Listeria monocytogenes (Listeria monocytogenes); test: cryo-EM structure; stressosomes assembled from purified RsbR, RsbS and RsbT (1:2:5 molar ratio, overnight, 4 °C), purified on Superose 6 in 20 mM Tris-HCl pH 8.5, 250 mM NaCl, 1 mM DTT, 1 mM ADP; 50-150 ug/mL on GO-amino grids; C1, no symmetry imposed; only RsbR and RsbS modelled
[2] = target: RsbS (wild type), Listeria monocytogenes (Listeria monocytogenes); test: as above

With “RsbR (wild type), Listeria monocytogenes (from UniProt Q8GD19 1-278) (natural protein)” the stoichiometry N [1] was 2 RsbR to RsbS.

For “RsbR T209A, Listeria monocytogenes (natural protein)”, the stoichiometry N [2] was 3 RsbR to RsbS.

In the case of “RsbR T175A, Listeria monocytogenes (natural protein)”, the stoichiometry N [2] was 2 RsbR to RsbS.

For “RsbR T209E, Listeria monocytogenes (natural protein)”, the stoichiometry N [2] was 1 RsbR to RsbS.
